From patent US20090208447A1 (MEDIGENE, published 2009)
Changes are numbered by the printed parent chain.

B1: SEQ ID NO 76 (receptor)
chain: MGHLPKPTLWAEPGSVITMDQPVTLRCQGGQETQQYRLYREKKTAPWITRIPQELVKKGQFPIPSITWEHAGRYRCYYGSDTRQWSASSDPLELVVTGVYIKPTLSAQPSPVVNSGGNVTLQCDSQVAFDGFILCKEGEDDHPQCLNSQPHARGSSRAIFSVGPVSPSRRWRYRCYAYDSNSPYEWSLPSDLLELDVDG
B2: SEQ ID NO 68 (receptor)
chain: MHLPKPTLWAEPGSVITLRSPVTLRCQGGQETQEYRLYREKKTAPWITRIPQELVKKGQFPIPSITWEHAGRYRCYYGSDTSQWSASSDPLELVVTGVYIKPTLSAQPSPVVNSGGNVTLQCDSQVAFDGFILCKEGEDEHPQCLNSQPHARGSSRAIFSVGPVSPSRRWWYRCYAYDSNSPYEWSLPSDLLELDVDG
B3: SEQ ID NO 74 (receptor)
chain: B2 chain with L18M, R19D, S20Q, S79G, D80Q, T81E, S82G, Q83A, W84R, A86E
B4: SEQ ID NO 75 (receptor)
chain: B2 chain with L18M, R19D, S20Q, S79T, D80Q
B5: SEQ ID NO 77 (receptor)
chain: B2 chain with L18M, R19D, S20Q, L145D
B6: SEQ ID NO 79 (receptor)
chain: B2 chain with L18M, R19D, S20Q, L187D
B7: SEQ ID NO 72 (receptor)
chain: MHLPKPTLWAEPGSVITMDQPVTLRCQGGQETQEYRLYREKKTAPWITRIPQELVKKGQFPIPSITWEHAGRYRCMQYTLTAGRSESSDPLELVVTGVYIKPTLSAQPSPVVNSGGNVTLQCDSQVAFDGFILCKEGEDEHPQCLNSQPHARGSSRAIFSVGPVSPSRRWWYRCYAYDSNSPYEWSLPSDLLELDVDG
B8: SEQ ID NO 71 (receptor)
chain: B7 chain with M76Y, Q77Y, Y78G, L80Q
B9: SEQ ID NO 70 (receptor)
chain: B2 chain with R19E
B10: SEQ ID NO 78 (receptor)
chain: B2 chain with L18M, R19D, S20Q, I158E
B11: SEQ ID NO 80 (receptor)
chain: B2 chain with L18M, R19D, S20Q, C134S, C144S
B12: SEQ ID NO 73 (receptor)
chain: B7 chain with M76V, Q77I, Y78Q, T79R, L80G
B13: SEQ ID NO 69 (receptor)
chain: B2 chain with R19Q
B14: soluble truncated variant of the Wild-Type ILT-2 molecule (extracellular domains D1 and D2) (receptor)
chain: MGHLPKPTLWAEPGSVITQGSPVTLRCQGGQETQEYRLYREKKTAPWITRIPQELVKKGQFPIPSITWEHAGRYRCYYGSDTAGRSESSDPLELVVTGAYIKPTLSAQPSPVVNSGGNVTLQCDSQVAFDGFILCKEGEDEHPQCLNSQPHARGSSRAIFSVGPVSPSRRWWYRCYAYDSNSPYEWSLPSDLLELLVL
notes: also called soluble wild-type ILT-2 polypeptide; soluble two domain form of the wild-type ILT-2

biological target: T1, HLA-A*0201 loaded with the Carcinoembryonic antigen (CEA)-derived … peptide (biotinylated on the C-terminal biotinylation tag); test: SPR (Biacore), Example 4

| Kd | koff | Binder |
| --- | --- | --- |
| ≤ 1000 nM | ≤ 2 s⁻¹ | B1 |
| ≤ 1000 nM | ≤ 2 s⁻¹ | B2 |
| ≤ 1000 nM | ≤ 2 s⁻¹ | B3 |
| ≤ 1000 nM | ≤ 2 s⁻¹ | B4 |
| ≤ 1000 nM | ≤ 2 s⁻¹ | B5 |
| ≤ 1000 nM | ≤ 2 s⁻¹ | B6 |
| ≤ 1000 nM | ≤ 2 s⁻¹ | B7 |
| ≤ 1000 nM | ≤ 2 s⁻¹ | B8 |
| ≤ 1000 nM | ≤ 2 s⁻¹ | B9 |
| ≤ 1000 nM | ≤ 2 s⁻¹ | B10 |
| ≤ 1000 nM | ≤ 2 s⁻¹ | B11 |
| ≤ 1000 nM | ≤ 2 s⁻¹ | B12 |
| ≤ 1000 nM | ≤ 2 s⁻¹ | B13 |

biological target: T1, HLA-A*0201 loaded with the …; test: SPR (Biacore), method of Example 4

| koff | Binder |
| --- | --- |
| 2.4 s⁻¹ | B14 |

biological target: T1, HLA-A*0201 loaded with the …; test: SPR (Biacore 3000), biotinylated pMHC immobilised on streptavidin

| Kd | Binder |
| --- | --- |
| ~6000 nM | B14 |
